Measured values taken from patent US20190062438A1 (CSL, published 2019).
Changes are numbered by the printed parent chain.

Assays:
Experiment in all cases: SPR, kinetics, Fab over captured mutant
shCD131 T419A = biological target: T1, shCD131 T419A (human, UniProt P32927 17-438)
T1 construct: C-terminal 6xHis
T1 sequence: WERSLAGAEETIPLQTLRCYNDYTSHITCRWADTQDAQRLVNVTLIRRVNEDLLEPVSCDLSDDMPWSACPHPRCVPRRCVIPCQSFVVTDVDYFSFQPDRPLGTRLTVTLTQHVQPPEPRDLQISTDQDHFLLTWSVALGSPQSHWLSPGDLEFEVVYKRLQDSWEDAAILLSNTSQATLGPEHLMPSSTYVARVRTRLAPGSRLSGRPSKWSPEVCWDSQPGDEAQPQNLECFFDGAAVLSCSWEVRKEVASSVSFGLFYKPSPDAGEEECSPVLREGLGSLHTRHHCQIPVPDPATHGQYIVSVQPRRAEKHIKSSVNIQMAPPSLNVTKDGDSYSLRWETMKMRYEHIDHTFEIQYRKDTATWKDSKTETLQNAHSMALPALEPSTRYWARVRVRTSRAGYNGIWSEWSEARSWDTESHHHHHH
Procedure: (§1) As shβc is a dimer, kinetics assays were performed with shβc captured on the sensor surface, and purified Fab injected as the analyte. Avidity effects were avoided by the use of Fab rather than whole IgG.
(§2) shCD131 was captured on spots 1 and 5 of each flow cell for 2 minutes at a concentration of 0.4 μg/ml. […] For some analysis purified Fab was injected over each flow cell for 3 minutes and dissociation was monitored for a further 10 minutes. Regeneration of the surface was performed after each cycle with a 40 second injection of 25 mM glycine, pH 2.0. The analysis was performed with Fabs at several concentrations between 100 and 0.31 nM, with each concentration analyzed twice and in random order. The analysis was performed at a flow rate of 30 μl/min in HBS-EP buffer (10 mM Hepes, 150 mM NaCl, 3 mM EDTA, 0.005% Tween 20, pH 7.4) at 37° C. Responses from spots 2 and 4 of each flow cell, (in which shβc was not captured, but otherwise treated identically), were subtracted from those of spots 1 and 5 respectively to produce reference subtracted data. Reference subtracted responses from a blank injection comprising buffer alone were subtracted from the resultant sensorgrams to produce double referenced data suitable for kinetic analysis. Double-referenced sensorgrams were fitted using non-linear regression to a model describing 1:1 kinetics, including a term for mass transport limitation. The Rₘₐₓ value was fitted locally to account for slight deviations in the level of sCD131 captured, with association rate (kₐ), dissociation rate (kd) and equilibrium dissociation constant (KD) fitted globally.
(§3) Mapping of the shCD131 epitope was performed by measurement of the affinity of Fabs for various alanine point mutants of shCD131 essentially as described above, with the following exceptions. Each shCD131 mutant was captured for 120 seconds at concentrations between 1 and 5 μg/ml. For kinetic analysis, purified recombinant Fabs were injected for 2 minutes, and dissociation was monitored for a further 2 minutes. […] Fab concentrations ranged from 16 μM to 3.9 nM in two-fold dilutions.

shCD131 G420A = biological target: T2, shCD131 G420A (human, UniProt P32927 17-438)
T2 construct: C-terminal 6xHis
T2 sequence: T1 sequence with A403T, G404A
Procedure: as §1, §2, §3

shCD131 T106A = biological target: T3, shCD131 T106A (human, UniProt P32927 17-438)
T3 construct: C-terminal 6xHis
T3 sequence: T1 sequence with T90A, A403T
Procedure: as §1, §2, §3

shCD131 E366A = biological target: T4, shCD131 E366A (human, UniProt P32927 17-438)
T4 construct: C-terminal 6xHis
T4 sequence: T1 sequence with E350A, A403T
Procedure: as §1, §2, §3

B1: 9A2 Fab (Fab, V domains shown)
VH: EVQLLESGGGLVQPGGSLRLSCAASGFTFSHYHMLWVRQAPGKGLEWVSSIRSSGGFTYYADSVKGRFTISRDNSKNTLYLQMNSLRAEDTAVYYCARFYDSFFDIWGQGTMVTVSS
VL: DIQMTQSPSSVSASVGDRVTITCRASQGISSWLAWYQQKPGKAPKLLIYAASSLQSGVPSRFSGSGSGTDFTLTISSLQPEDFATYYCQQANSFPITFGQGTRLEIKR
notes: also called recombinant Fab of 9A2
Kd (shCD131 T419A): 53 nM | Kd (shCD131 G420A): 63 nM | Kd (shCD131 T106A): 5.8 nM | Kd (shCD131 E366A): 32 nM
